These results are taken from FireProtDB.

First the molecules themselves.
B1: Tissue-type plasminogen activator, P00750 (parent)
chain: MDAMKRGLCCVLLLCGAVFVSPSQEIHARFRRGARSYQVICRDEKTQMIYQQHQSWLRPVLRSNRVEYCWCNSGRAQCHSVPVKSCSEPRCFNGGTCQQALYFSDFVCQCPEGFAGKCCEIDTRATCYEDQGISYRGTWSTAESGAECTNWNSSALAQKPYSGRRPDAIRLGLGNHNYCRNPDRDSKPWCYVFKAGKYSSEFCSTPACSEGNSDCYFGNGSAYRGTHSLTESGASCLPWNSMILIGKVYTAQNPSAQALGLGKHNYCRNPDGDAKPWCHVLKNRRLTWEYCDVPSCSTCGLRQYSQPQFRIKGGLFADIASHPWQAAIFAKHRRSPGERFLCGGILISSCWILSAAHCFQERFPPHHLTVILGRTYRVVPGEEEQKFEVEKYIVHKEFDDDTYDNDIALLQLKSDSSRCAQESSVVRTVCLPPADLQLPDWTECELSGYGKHEALSPFYSERLKEAHVRLYPSSRCTSQHLLNRTVTDNMLCAGDTRSGGPQANLHDACQGDSGGPLVCLNDGRMTLVGIISWGLGCGQKDVPGVYTKVTNYLDWIRDNMRP
B2: Penicillolysin, P47189 (parent)
chain: MRFTTLSTAFLALAQNVYAFPIESDLSALDVTLSQVSDTRIKAVVKNTGAENVTFVHLNFFRDSAPVKKVSVYRENNEVVFDGIKRRFQLQGLASESLTTLEAGEVLEDEFDIATTTDLSSGGAITLRSNGLVPVVKDGAVTGYLPYSSNDLKLNIDGAKASTVTKALKPLDRRTKETCSNASRKSALEKALSNTVKLANAAATAARSGSASKFSEYFKTTSSSTRSVVAARLEAVAKEAQSASSGSTTYYCSDTLGYCETNVLAYTLPARNIIANCDIYYSYLPALAGTCHQQDQATTTLHEFTHAPGVYSPGTDDLGYGYSAATSLSSSQAVLNADSYALYANAINLGC
B3: Pyrrolidone-carboxylate peptidase, O73944 (parent)
chain: MKVLVTGFEPFGGEKINPTERIAKDLDGIKIGDAQVFGRVLPVVFGKAKEVLEKTLEEIKPDIAIHVGLAPGRSAISIERIAVNAIDARIPDNEGKKIEDEPIVPGAPTAYFSTLPIKKIMKKLHERGIPAYISNSAGLYLCNYVMYLSLHHSATKGYPKMSGFIHVPYIPEQIIDKIGKGQVPPSMCYEMELEAVKVAIEVALEELL
B4: Tetracycline repressor protein class D, P0ACT4 (parent)
chain: MARLNRESVIDAALELLNETGIDGLTTRKLAQKLGIEQPTLYWHVKNKRALLDALAVEILARHHDYSLPAAGESWQSFLRNNAMSFRRALLRYRDGAKVHLGTRPDEKQYDTVETQLRFMTENGFSLRDGLYAISAVSHFTLGAVLEQQEHTAALTDRPAAPDENLPPLLREALQIMDSDDGEQAFLHGLESLIRGFEVQLTALLQIVGGDKLIIPFC
B5: Barstar, P11540 (parent)
chain: MKKAVINGEQIRSISDLHQTLKKELALPEYYGENLDALWDCLTGWVEYPLVLEWRQFEQSKQLTENGAESVLQVFREAKAEGCDITIILS
B6: Glutamate dehydrogenase, P96110 (parent)
chain: MPEKSLYEMAVEQFNRAASLMDLESDLAEVLRRPKRVLIVEFPVRMDDGHVEVFTGYRVQHNVARGPAKGGIRYHPDVTLDEVKALAFWMTWKTAVMNLPFGGGKGGVRVDPKKLSRNELERLSRRFFSEIQVIIGPYNDIPAPDVNTNADVMAWYMDTYSMNVGHTVLGIVTGKPVELGGSKGREEATGRGVKVCAGLAMDVLGIDPKKATVAVQGFGNVGQFAALLISQELGSKVVAVSDSRGGIYNPEGFDVEELIRYKKEHGTVVTYPKGERITNEELLELDVDILVPAALEGAIHAGNAERIKAKAVVEGANGPTTPEADEILSRRGILVVPDILANAGGVTVSYFEWVQDLQSFFWDLDQVRNALEKMMKGAFNDVMKVKEKYNVDMRTAAYILAIDRVAYATKKRGIYP
B7: Cocaine esterase, Q9L9D7 (parent)
chain: MVDGNYSVASNVMVPMRDGVRLAVDLYRPDADGPVPVLLVRNPYDKFDVFAWSTQSTNWLEFVRDGYAVVIQDTRGLFASEGEFVPHVDDEADAEDTLSWILEQAWCDGNVGMFGVSYLGVTQWQAAVSGVGGLKAIAPSMASADLYRAPWYGPGGALSVEALLGWSALIGTGLITSRSDARPEDAADFVQLAAILNDVAGAASVTPLAEQPLLGRLIPWVIDQVVDHPDNDESWQSISLFERLGGLATPALITAGWYDGFVGESLRTFVAVKDNADARLVVGPWSHSNLTGRNADRKFGIAATYPIQEATTMHKAFFDRHLRGETDALAGVPKVRLFVMGIDEWRDETDWPLPDTAYTPFYLGGSGAANTSTGGGTLSTSISGTESADTYLYDPADPVPSLGGTLLFHNGDNGPADQRPIHDRDDVLCYSTEVLTDPVEVTGTVSARLFVSSSAVDTDFTAKLVDVFPDGRAIALCDGIVRMRYRETLVNPTLIEAGEIYEVAIDMLATSNVFLPGHRIMVQVSSSNFPKYDRNSNTGGVIAREQLEEMCTAVNRIHRGPEHPSHIVLPIIKR
B8: Growth factor receptor-bound protein 2, Q08012 (parent)
chain: MEAIAKHDFSATADDELSFRKTQILKILNMEDDSNWYRAELDGKEGLIPSNYIEMKNHDWYYGRITRADAEKLLSNKHEGAFLIRISESSPGDFSLSVKCPDGVQHFKVLRDAQSKFFLWVVKFNSLNELVEYHRTASVSRSQDVKLRDMIPEEMLVQALYDFVPQESGELDFRRGDVITVTDRSDENWWNGEIGNRKGIFPATYVTPYHS
B9: Gamma-crystallin S, P22914 (parent)
chain: MSKTGTKITFYEDKNFQGRRYDCDCDCADFHTYLSRCNSIKVEGGTWAVYERPNFAGYMYILPQGEYPEYQRWMGLNDRLSSCRAVHLPSGGQYKIQIFEKGDFSGQMYETTEDCPSIMEQFHMREIHSCKVLEGVWIFYELPNYRGRQYLLDKKEYRKPIDWGAASPAVQSFRRIVE
B10: Protein GrpE, Q65H53 (parent)
chain: MAEEKQNEELNEQEELNETEAETAEAEQTAAEADAPAEETQTEMLEKQLKELQERLEEKENKLLRVQADFENYKRRARLDLEAAEKYRSQRIISDLLPALDNFERALQIDPDNEQTKSLLQGMEMVHRQILEALKNEGVEQIPSVGEQFDPNMHQAVMQVEDEAYESNAVVEELQKGYKLKDRVIRPSMVKVNQ
B11: Chaperone Ric-8A, Q5E9J8 (parent)
chain: MEPRAVADALETGEEDVVMEALRAYNRENSQSFTFDDAQQEDRKRLAKLLVSVLEQGLPPSRRVIWLQSIRILSRDRSCLDSFTSRRSLQALACYAGISASQGSVPEPLNMDVVLESLKCLCNLVLSSPVAQALAAEAGLVVRLAERVGLCRQSSFPHDVQFFDLRLLFLLTALRTDVRQQLFQELQGVRLLTRALELTLGMTEGERHPELLPPQETERAMEILKVLFNITFDSIKREVDEEDAALYRHLGTLLRHCVMLAAAGDRTEELHGHAVNLLGNLPVKCLDVLLTLEPHEGSLEFLGVNMDVIRVLLSFMEKRLHQTHRLKESVAPVLSVLTECARMHRPARKFLKAQVLPPLRDVRTRPEVGELLRNKLVRLMTHLDTDVKRVAAEFLFVLCSESVPRFIKYTGYGNAAGLLAARGLMAGGRPEGQYSEDEDTDTDEYKEAKASINPVTGRVEEKPPNPMEGMTEEQKEHEAMKLVNMFDKLSRHRVIQPMGMSPRGQLTSLQDAMCETMEGQLSSDPDSDPD

“And” between values parts separate entries of the source, which are not always exact repeats. Equal entries are not always repeated.

The variants in one data set derive from B1. The settings on record: Homo sapiens; pH 7.4; Thermal; DSC; sodium Phosphate 10 mM; structure 1PML; whole UniProt chain shown.
For orientation: Tm means the temperature at the midpoint of the melting transition. On to W277H, for which the midpoint of thermal melting (Tm) was 56.6 °C; the “change of melting temperature, mutant - wild type (higher = more stable)” value (“change of melting temperature, mutant” below) was -19 °C; the “unfolding enthalpy (calorimetric)” value amounted to 56 kcal/mol.
On the same counts, the results for W277F are 58.5 °C, -17.1 °C and 40 kcal/mol.

In the next data set the parent is B2. Particulars: Penicillium citrinum; pH 5; Thermal; CD; sodium acetate 10 mM; reversible: no; whole UniProt chain shown.
In the case of A341E, the Tm is 70 °C and the “change of melting temperature, mutant” value turned out to be 2 °C.
With T255P, the melting temperature (Tm) came to 71 °C and the “change of melting temperature, mutant” value amounted to 3 °C.
For R207E E234R, in that order: 70 °C and 2 °C.

In the next data set the parent is B3. Particulars: Pyrococcus furiosus (strain ATCC 43587 / DSM 3638 / JCM 8422 / Vc1); pH 7; 60 °C; GdnHCl; CD; Tris-HCl 20 mM; reversible: yes; structure 1IOF; whole UniProt chain shown.
For C142S C188S, the denaturant m value was determined as 4.16 kcal/mol/M, the “denaturant midpoint (higher = more stable)” value turned out to be 3.4 M and the unfolding free energy worked out at 13.5 kcal/mol.

The variants in another data set derive from B4. Particulars: Escherichia coli; pH 7.5; 22 °C; Urea; CD; Tris-HCl 50 mM; NaCl 150 mM; reversible: yes(92%); structure 2TRT; whole UniProt chain shown.
In the case of R128E, the “denaturant midpoint (higher = more stable)” value was 4.9 M.

The next data set covers variants of B5. Particulars: Bacillus amyloliquefaciens; pH 8; 10 °C; Urea; CD; Tris Cl 50 mM; KCl 100 mM; structure 1BTA; whole UniProt chain shown.
With I6V, the “ddG of mutation (higher = less stable)” value came out at 1 kcal/mol and the unfolding free energy came to 2 kcal/mol.
For L35V, in that order: 1.1 kcal/mol and 1.9 kcal/mol.
On the same counts, the results for L17V are 1.1 kcal/mol and 1.9 kcal/mol.
With L52V, the “ddG of mutation (higher = less stable)” value amounted to 0.6 kcal/mol and the unfolding free energy is 2.4 kcal/mol.

The same data set, now with this note: Bacillus amyloliquefaciens; pH 7; Thermal; CD; phosphate 20 mM; structure 1A19; whole UniProt chain shown.
In the case of H18Q, the Tm is 65 °C.

Variants of B6 are the subject of another data set. Particulars: Thermotoga maritima (strain ATCC 43589 / DSM 3109 / JCM 10099 / NBRC 100826 / MSB8); pH 7.4; Thermal; DSC; Sodium phosphate 20 mM; reversible: no; structure 1B26; whole UniProt chain shown.
For the variant S129R T159E S161E, the midpoint of thermal melting (Tm) was found to be 88 °C.

Another data set covers variants of B7. The settings on record: Rhodococcus sp. (strain MB1 Bresler); pH 8; Thermal; Fluorescence; Tris 50 mM; structure 1JU3; whole UniProt chain shown.
Regarding L169K, the melting temperature (Tm) was determined as 41.1 °C and the “change of melting temperature, mutant” value amounted to 6.3 °C.
On to T172R G173Q, for which the Tm was 41.2 °C and the “change of melting temperature, mutant” value is 6.41 °C.
Take G173Q: the melting temperature (Tm) came to 37.7 °C and the “change of melting temperature, mutant” value turned out to be 2.97 °C.

In the next data set the parent is B8. The settings on record: Drosophila melanogaster; pH 6; 20 °C; GdnHCl; Fluorescence; phosphate 50 mM; structure 2A36; whole UniProt chain shown.
As for T22G, the “ddG of mutation (higher = less stable)” value was -3.6 kcal/mol, the denaturant m value stood at 2.2 kcal/mol/M and the unfolding free energy is 4 kcal/mol.

Variants of B9 are the subject of the next data set. The settings on record: Homo sapiens; pH 7.4; Thermal; Fluorescence; Disodium phosphate; NaCl; structure 6FD8; whole UniProt chain shown.
S39C: the melting temperature (Tm) was 61.3 °C and 58.8 °C; the “change of melting temperature, mutant” value was -6.2 °C and -7 °C.

A further data set covers variants of B10. The settings on record: Bacillus licheniformis (strain ATCC 14580 / DSM 13 / JCM 2505 / CCUG 7422 / NBRC 12200 / NCIMB 9375 / NCTC 10341 / NRRL NRS-1264 / Gibson 46…; pH 7; Thermal; CD; Hepes 10 mM; reversible: Yes; whole UniProt chain shown.
As for L52P, the Tm came out at 40.1 °C; the “change of melting temperature, mutant” value was -11.9 °C; the “unfolding enthalpy (van 't Hoff)” value stood at 37.5 kcal/mol.
On to L134H, for which the Tm worked out at 43.2 °C; the “change of melting temperature, mutant” value was -8.8 °C; the “unfolding enthalpy (van 't Hoff)” value is 21 kcal/mol.

A further data set covers variants of B11. Particulars: Bos taurus; pH 7.5; Thermal; DSF; Tris-HCl; KCl; structure 6N85; whole UniProt chain shown.
As to F169R, the melting temperature (Tm) worked out at 45.6 °C and the “change of melting temperature, mutant” value was -1.2 °C.
On the same counts, the results for N123E are 46.7 °C and -0.1 °C.
On the same counts, the results for R75M are 45.9 °C and -0.9 °C.
For A173W, in that order: 45.6 °C and -1.2 °C.
